Among the data in patent publication US20140141019A1 are IC50 values, retold here.

The assay addresses HER3 receptor on cells (HER3-transfected NIH 3T3 fibroblasts; SKBR3 cells; BxPC3 cells) (human) (UniProt P21860). Nature of the assay: flow cytometry competition on SKBR3 cells; HRG varied against anti-HER3 antibody (H4B-121, control antibody D) at its 50% maximal binding concentration. (In general: A flow cytometer gives signals particle by particle.)

In general, IC50 refers to the point on the concentration scale where inhibition reaches its midpoint. The low end stands for greater potency in that assay, the high end for weaker potency in that assay.

In turn, “heregulin (from UniProt Q02297 177-241) (ligand)” had an IC50 of 2.5 nM.
